Measurements published in patent US20220403022A1 (Merck KGaA, published 2022).
Residue numbers refer to the chain shown, from its start. Where “and” joins values, the source holds several entries; their conditions need not be identical. Equal entries are not always repeated. Values belong to the binder of their own block, whether it stands above or below them.

Experiments:
His-tagged human TIGIT [1] = target: T1, His-tagged human TIGIT (human, UniProt Q495A1 22-141); test: SPR, IgG captured on anti-human Fc, His-tagged human TIGIT injected
T1 construct: soluble analyte in SPR
T1 sequence: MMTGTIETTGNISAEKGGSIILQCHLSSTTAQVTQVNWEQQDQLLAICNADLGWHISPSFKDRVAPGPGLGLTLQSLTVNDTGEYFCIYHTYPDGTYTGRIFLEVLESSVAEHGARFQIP

His-tagged human TIGIT [2] = target: T1, His-tagged human TIGIT; test: as above; remark: listed apart in the source
[3] = target: T2, human TIGIT ECD expressed on the CHO-S cell surface (human, UniProt Q495A1 22-141); test: cell-based or functional assay
T2 sequence: T1 sequence

PD-L1 = target: T3, PD-L1 (UniProt Q9NZQ7 19-238, limits assumed); test: ELISA EC50 assay
T3 construct: also called unrelated protein PD-L1
T3 sequence (Q9NZQ7 19-238 limits assumed): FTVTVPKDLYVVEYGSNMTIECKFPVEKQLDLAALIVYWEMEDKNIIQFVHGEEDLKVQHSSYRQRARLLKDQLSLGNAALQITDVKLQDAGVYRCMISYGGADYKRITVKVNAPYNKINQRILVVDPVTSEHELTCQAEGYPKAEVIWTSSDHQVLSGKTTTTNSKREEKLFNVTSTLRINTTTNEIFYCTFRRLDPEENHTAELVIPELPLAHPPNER

CD226 = target: T4, CD226 (UniProt Q15762 19-247, limits assumed); test: ELISA EC50 assay
T4 construct: also called related family member protein CD226
T4 sequence (looked up): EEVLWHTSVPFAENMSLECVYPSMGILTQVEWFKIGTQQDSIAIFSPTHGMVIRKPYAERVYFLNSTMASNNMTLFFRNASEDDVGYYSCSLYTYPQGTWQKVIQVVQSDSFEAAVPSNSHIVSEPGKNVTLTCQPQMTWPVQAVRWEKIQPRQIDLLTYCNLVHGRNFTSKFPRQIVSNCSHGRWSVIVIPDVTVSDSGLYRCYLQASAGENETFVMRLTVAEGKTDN

[4] = target: T5, cynomolgus monkey TIGIT ECD expressed on the CHO-S cell surface (cynomolgus monkey); test: flow cytometry on CHO-S cells expressing cyno TIGIT ECD
T5 construct: extracellular domain; also called CHO-S-cynoTIGIT

[5] = target: T6, His-tagged cynomolgus monkey TIGIT (cynomolgus monkey, UniProt A0A7N9I9V4 89-209); test: SPR Biacore, antibody captured on anti-human Fc, His-tagged TIGIT injected
T6 construct: also called Cyno TIGIT; cynomolgus monkey TIGIT (Novoprotein cat. No. CP02)
T6 sequence (A0A7N9I9V4 entry or part of it): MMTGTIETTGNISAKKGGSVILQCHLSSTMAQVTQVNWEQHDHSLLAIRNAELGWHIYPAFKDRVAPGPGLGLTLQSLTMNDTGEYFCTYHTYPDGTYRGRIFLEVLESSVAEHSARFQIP

His-tagged human TIGIT [6] = target: T1, His-tagged human TIGIT; test: as above
[7] = target: T2, human TIGIT ECD expressed on the CHO-S …; test: flow cytometry on CHO-S cells expressing human TIGIT ECD
[8] = target: T7, human TIGIT on cells (primary T cells, transfected HEK293 cells, Jurkat reporter cells, NK cells) (human, UniProt Q495A1 22-244); test: cell-based or functional assay
T7 sequence: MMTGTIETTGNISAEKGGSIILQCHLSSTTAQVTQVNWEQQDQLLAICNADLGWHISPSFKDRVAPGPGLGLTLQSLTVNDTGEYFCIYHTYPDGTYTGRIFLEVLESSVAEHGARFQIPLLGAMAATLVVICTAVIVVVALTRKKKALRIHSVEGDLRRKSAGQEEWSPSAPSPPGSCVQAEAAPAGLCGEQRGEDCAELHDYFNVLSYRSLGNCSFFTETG

[9] = target: T5, cynomolgus monkey TIGIT ECD expressed …; test: flow cytometry on CHO-S cells expressing cynomolgus monkey TIGIT ECD
[10] = target: T2, human TIGIT ECD expressed on the CHO-S …; test: flow cytometry on CHO-S cells expressing human TIGIT ECD; remark: listed apart in the source
[11] = target: T2, human TIGIT ECD expressed on the CHO-S …; test: flow cytometry blocking assay on CHO-S-hTIGIT cells, competitor muCD112; competitor muCD112; muIgG2c version
[12] = target: T2, human TIGIT ECD expressed on the CHO-S …; test: flow cytometry blocking assay on CHO-S-hTIGIT cells, competitor muCD155-Fc; competitor muCD155-Fc; muIgG2c version

koff (His-tagged human TIGIT [1]): 0.00063 s⁻¹ | koff (His-tagged human TIGIT [2]): 0.00063 s⁻¹ | ADCC EC50, nM (Donor 1005-4464) [3]: 0.028 nM | ADCC EC50, nM (Donor 1102-7215) [3]: 0.069 nM | ADCC EC50, nM (Donor 1106-0557) [3]: 0.08 nM | binding result (PD-L1): no binding | binding result (CD226): no binding | EC50 [4]: 3.6 nM | Kd [5]: 1.45 nM and 1.5 nM | koff [5]: 0.000213 s⁻¹ | kon [5]: 147000 M⁻¹ s⁻¹ | Kd (His-tagged human TIGIT [6]): 3.37 nM and 3.4 nM | koff (His-tagged human TIGIT [6]): 0.000407 s⁻¹ | kon (His-tagged human TIGIT [6]): 121000 M⁻¹ s⁻¹ | EC50 [7]: 4.7 nM | EC50 [8]: 6.3 µg/mL
B1: 3963H03 (antibody, human IgG1, kappa, V domains shown)
VH: EIQLVQSGSELKKPGASVKVSCKASGYTFTSYPMNWVRQAPGQGLEWMGWINTNTGNPTYAQGFTGRFVFSLDTSVSTAYLQISSLKAEDTAVYYCARVGGYSVDEYAFDVWGQGTMVTVSS
VL: AIRLTQSPSFLSASVGDRVTITCRASQGISSYLAWYQQKPGKAPKLLIYAASTLQSGVPSRFSGSGSGTEFTLTISSLQPEDFATYYCQQLNSYPTFGGGTKVEIKR
notes: fully human IgG1 kappa, B-cell cloning hit from OmniRat; also called 3963H03 VH; 3963H03 VK

Kd [5]: 0.0519 nM and 0.05 nM | koff [5]: 1.57e-05 s⁻¹ | kon [5]: 303000 M⁻¹ s⁻¹ | Kd (His-tagged human TIGIT [6]): 0.0661 nM and 0.07 nM | koff (His-tagged human TIGIT [6]): 2.15e-05 s⁻¹ | kon (His-tagged human TIGIT [6]): 325000 M⁻¹ s⁻¹
B2: 7728B03 (antibody, V domains shown)
VH: B1 VH with E1Q, I2M, V99T, A108S, V111I, M117T
VL: DIQLTQSPSFLSASVGDRVTITCRASQGISSYLAWYQQKPGKAPKLLIYAASTLQSGVPSRFSGSGSGTEFTLTISSLQPEDFATYYCHQTIFRPTFGGGTKVEIK
notes: constant regions correspond to those of H03-12

Kd [5]: 0.0211 nM and < 0.05 nM | koff [5]: 1.23e-05 s⁻¹ | kon [5]: 581000 M⁻¹ s⁻¹ | Kd (His-tagged human TIGIT [6]): 0.0173 nM and < 0.05 nM | koff (His-tagged human TIGIT [6]): 1.33e-05 s⁻¹ | kon (His-tagged human TIGIT [6]): 767000 M⁻¹ s⁻¹
B3: 7729G05 (antibody, V domains shown)
VH: B1 VH with E1Q, I2V, Y102F, S103T, D105P, V111I, M117T
VL: B2 VL with Q3R, H89G, T91V, I92M, F93R, R94Y, T96A
notes: as for B2

binding result (PD-L1): no binding | binding result (CD226): no binding | EC50 (read off the curve) [9]: ~8 nM | EC50 (read off the curve) [10]: ~9 nM | Kd [5]: 1.11 nM and 1.1 nM | koff [5]: 0.000122 s⁻¹ | kon [5]: 109000 M⁻¹ s⁻¹ | Kd (His-tagged human TIGIT [6]): 2.62 nM and 2.6 nM | koff (His-tagged human TIGIT [6]): 0.000233 s⁻¹ | kon (His-tagged human TIGIT [6]): 89100 M⁻¹ s⁻¹
B4: 3964A06 (antibody, human IgG1, V domains shown)
VH: B1 VH with I2V, S31A, D105Y, E106D, V111I
VL: B2 VL with H89Q, T91L, I92N, F93S, R94Y

binding result (PD-L1): no binding | binding result (CD226): no binding | EC50 (read off the curve) [9]: ~7 nM | EC50 (read off the curve) [10]: ~9 nM | Kd [5]: 1.41 nM and 1.4 nM | koff [5]: 0.000167 s⁻¹ | kon [5]: 118000 M⁻¹ s⁻¹ | Kd (His-tagged human TIGIT [6]): 2.53 nM and 2.5 nM | koff (His-tagged human TIGIT [6]): 0.000274 s⁻¹ | kon (His-tagged human TIGIT [6]): 108000 M⁻¹ s⁻¹
B5: 3966C11 (antibody, human IgG1, V domains shown)
VH: B1 VH with Y60N, S103G, V104G, D105Y, E106D, V111I
VL: B2 VL with H89Q, T91L, I92N, F93S, R94Y, V103L
notes: constant regions correspond to those of H03-12 (human IgG1, kappa)

IC50 [11]: 1.19 µg/mL | IC50 [12]: 0.291 µg/mL
B6: 3963H03-12-muIgG2c (antibody, V domains shown)
VH: B1 VH with E1Q, I2V, M117L
VL: B2 VL with H89Q, T91L, I92S, F93S, R94Y
notes: also called version of 3963H03-12 with a murine immunoglobulin

binding result (PD-L1): no binding | binding result (CD226): no binding | EC50 (read off the curve) [9]: ~3 nM | EC50 (read off the curve) [10]: ~5 nM | Kd [5]: 8.66 nM and 8.7 nM | koff [5]: 0.00565 s⁻¹ | kon [5]: 653000 M⁻¹ s⁻¹ | Kd (His-tagged human TIGIT [6]): 10.3 nM | koff (His-tagged human TIGIT [6]): 0.00497 s⁻¹ | kon (His-tagged human TIGIT [6]): 482000 M⁻¹ s⁻¹
B7: 3965D08 (antibody, human IgG1, V domains shown)
VH: EVQLVQSGSELKKPGASVKVSCKASGYTFTSYPMNWVRQAPGQGLEWMGWINTNTGNPTYAQGFTGRFVFSLDTSVSTAYLQISSLKAEDTAVYYCARTGYSGSYYWFDPWGQGTLVTVSS
VL: DIRLTQSPSFLSASVGDRVTITCRASQGISSYLAWYQQKPGKAPKFLIYAASTLQSGVPSRFSGSGSGTEFTLTISSLQPEDFATYYCQQLNSYLTFGQGTRLEIK
notes: as for B5
